This assay relates to cells of the human embryonic stem cell line H1 differentiated to stage 5. Kind of assay: Real-time PCR of pancreatic endoderm/endocrine genes after factors spiked into stage 5 media. It counts as cell-based. Conditions: for expression of somatostatin / expression of ghrelin / expression of glucagon: 20 ng/ml at S5, mRNA at day 3 of S5, vs control; for expression of somatostatin: FIG. 1B; for expression of ghrelin: FIG. 1C; for expression of glucagon: FIG. 1D; for mRNA expression of insulin / mRNA expression of NKX6.1: factor spiked at day 1 of stage 5, mRNA at day 3 of S5, vs control cultures, Table I: Ephrin-A4 100 ng/ml; for mRNA expression of insulin: Activin A and Activin C 20 ng/ml, FIG. 1A; for expression of hormones / mRNA expression of NKX6.1: Semaphorin 3a 50 ng/ml; for expression of hormones: Epigen 20 ng/ml at S5, compared to untreated cultures; for mRNA expression of NKX6.1: Epigen 20 ng/ml, FIG. 1F. Here is the method: Cells of the human embryonic stem cell line H1 (hESC H1, passage 40) were seeded as single cells at 1×10^5 cells/cm^2 on MATRIGEL™ (1:30 dilution; BD Biosciences, NJ)-coated dishes in mTeSR®1 media (StemCell Technologies, Vancouver, Canada) supplemented with 10 μM of Y27632 (Rock inhibitor, Catalog No. Y0503, SigmaAldrich, St. Louis, Mo.). Forty-eight hours post seeding, cultures were washed in incomplete PBS (phosphate buffered saline without Mg or Ca). Cultures were differentiated into pancreatic endoderm/endocrine lineages as follows: • a) Stage 1 (Definitive Endoderm (DE)—3 days): Cells were cultured for one day in stage 1 media: MCDB-131 medium (Catalog No. 10372-019, Invitrogen, Carlsbad, Calif.) supplemented with 0.1% fatty acid-free BSA (Catalog No. 68700, Proliant, Ankeny, Iowa), 0.0012 g/ml sodium bicarbonate (Catalog No. S3187, SigmaAldrich, St. Louis, Mo.), 1× GlutaMax™ (Invitrogen Catalog No. 35050-079), 4.5 mM D-Glucose (SigmaAldrich Catalog No. G8769), 100 ng/ml GDF8 (R&D Systems, Minneapolis, Minn.) and 1 μM MCX compound (a GSK3B inhibitor, 14-Prop-2-en-1-yl-3,5,7,14,17,23,27-heptaazatetracyclo [19.3.1.1˜2,6˜0.1˜8,12˜]heptacosa-1(25),2(27),3,5,8(26),9,11,21,23-nonaen-16-one, US Patent Application Publication No. 2010-0015711; incorporated herein by reference in its entirety). Cells were then cultured for additional day in MCDB-131 medium supplemented with 0.1% fatty acid-free BSA, 0.0012 g/ml sodium bicarbonate, 1× GlutaMax™, 4.5 mM D-Glucose, 100 ng/ml GDF8, and 0.1 μM MCX compound. Cells were then cultured for an additional day in MCDB-131 medium supplemented with 0.1% fatty acid-free BSA, 0.0012 g/ml sodium bicarbonate, 1× GlutaMax™, 4.5 mM D-Glucose, and 100 ng/ml GDF8, then • b) Stage 2 (Primitive gut tube—2 days): Cells were treated for two days with MCDB-131 medium supplemented with 0.1% fatty acid-free BSA; 0.0012 g/ml sodium bicarbonate; 1× GlutaMax™; 4.5 mM D-Glucose; 0.25 mM ascorbic acid (Sigma, St. Louis, Mo.) and 25 ng/ml FGF7 (R & D Systems, Minneapolis, Minn.), then • c) Stage 3 (Foregut—2 days): Cells were treated with MCDB-131 medium supplemented with a 1:200 dilution of ITS-X (Invitrogen); 4.5 mM Glucose; 1× GlutaMax™; 0.0017 g/ml sodium bicarbonate; 2% fatty acid-free BSA; 0.25 μM SANT-1 (Sigma, St. Louis, Mo.); 10 ng/ml of Activin-A (R & D Systems); 1 μM retinoic acid (RA; Sigma); 25 ng/ml FGF7; 0.25 mM ascorbic acid; 200 nM TPB (a PKC activator; Catalog No. 565740; EMD Chemicals, Gibstown, N.J.); 10 μM forskolin (FSK, Sigma), and 100 nM LDN (a BMP receptor inhibitor; Catalog No. 04-0019; Stemgent; San Diego, Calif.) for day 1. On day 2, cells were treated with MCDB-131 medium supplemented with a 1:200 dilution of ITS-X; 4.5 mM Glucose; 1× GlutaMax™; 0.0017 g/ml sodium bicarbonate; 2% fatty acid-free BSA; 0.25 μM SANT-1; 10 ng/ml of Activin A; 1 μM RA; 25 ng/ml FGF7; 0.25 mM ascorbic acid, 200 nM TPB, 10 μM forskolin and 10 nM LDN, then • d) Stage 4 (Pancreatic foregut precursor—2 days); Cells were treated with MCDB-131 medium supplemented with a 1:200 dilution of ITS-X; 4.5 mM Glucose; 1× GlutaMax™; 0.0015 g/ml sodium bicarbonate; 2% fatty acid-free BSA; 0.25 μM SANT-1; 50 nM RA; 50 nM LDN-193189; 10 μM forskolin; 0.25 mM ascorbic acid; and 100 nM TPB for two days, then • e) Stage 5 (Pancreatic endoderm/endocrine—3 days): Stage 4 cells were treated with MCDB-131 medium supplemented with a 1:200 dilution of ITS-X; 20 mM Glucose; 1× GlutaMax™; 0.0015 g/ml sodium bicarbonate; 2% fatty acid-free BSA; 0.25 μM SANT-1; 50 nM RA; 10 μM forskolin; 0.25 mM ascorbic acid for three days, with the addition of 100 nM ALk5 inhibitor SD-208 (disclosed in Molecular Pharmacology 2007, 72:152-161) for days 2-3 only.
At day 1 of stage 5, the factors listed in Table I, below, were spiked into the media and upon completion of S5 (day 3 of stage 5) mRNA was collected for PCR analysis of relevant pancreatic endoderm/endocrine genes. As a control, cultures were treated only with the S5 media listed above. […]
Background: Quantitative PCR measures a nucleic acid by following its amplification.

B1: Activin-C: protein factor, R & D Systems catalogue number 4879-AC-010 (protein, UniProt P55103 237-352, looked up)
Inhibin beta C chain: GIDCQGGSRMCCRQEFFVDFREIGWHDWIIQPEGYAMNFCIGQCPLHIAGMPGIAASFHTAVLNLLKANTAAGTTGGGSCCVPTARRPLSLLYYDRDSNIVKTDIPDMVVEACGCS
As for B1, the expression of somatostatin result is “significantly enhanced”, the expression of ghrelin result is “suppressing”, the expression of glucagon result is reported as “suppressing” and the “mRNA expression of insulin” value is “suppressing”.

B2: Activin-A: protein factor, R & D Systems catalogue number 338-AC-010 (protein, UniProt P08476 311-426, looked up)
Inhibin beta A chain: GLECDGKVNICCKKQFFVSFKDIGWNDWIIAPSGYHANYCEGECPSHIAGTSGSSLSFHSTVINHYRMRGHSPFANLKSCCVPTKLRPMSMLYYDDGQNIIKKDIQNMIVEECGCS
As to B2, the expression of somatostatin entry is reported as “significantly enhanced”, the expression of ghrelin result is reported as “suppressing”, the expression of glucagon entry was “suppressing” and the “mRNA expression of insulin” value is given as “suppressing”.

B3: semaphorin 3a: protein factor, R & D Systems catalogue number 1250-S3-025 (protein, UniProt Q14563 21-771, looked up)
Semaphorin-3A: NYQNGKNNVPRLKLSYKEMLESNNVITFNGLANSSSYHTFLLDEERSRLYVGAKDHIFSFDLVNIKDFQKIVWPVSYTRRDECKWAGKDILKECANFIKVLKAYNQTHLYACGTGAFHPICTYIEIGHHPEDNIFKLENSHFENGRGKSPYDPKLLTASLLIDGELYSGTAADFMGRDFAIFRTLGHHHPIRTEQHDSRWLNDPKFISAHLISESDNPEDDKVYFFFRENAIDGEHSGKATHARIGQICKNDFGGHRSLVNKWTTFLKARLICSVPGPNGIDTHFDELQDVFLMNFKDPKNPVVYGVFTTSSNIFKGSAVCMYSMSDVRRVFLGPYAHRDGPNYQWVPYQGRVPYPRPGTCPSKTFGGFDSTKDLPDDVITFARSHPAMYNPVFPMNNRPIVIKTDVNYQFTQIVVDRVDAEDGQYDVMFIGTDVGTVLKVVSIPKETWYDLEEVLLEEMTVFREPTAISAMELSTKQQQLYIGSTAGVAQLPLHRCDIYGKACAECCLARDPYCAWDGSACSRYFPTAKRRTRRQDIRNGDPLTHCSDLHHDNHHGHSPEERIIYGVENSSTFLECSPKSQRALVYWQFQRRNEERKEEIRVDDHIIRTDQGLLLRSLQQKDSGNYLCHAVEHGFIQTLLKVTLEVIDTEHLEELLHKDDDGDGSKTKEMSNSMTPSQKVWYRDFMQLINHPNLNTMDEFCEQVWKRDRKQRRQRPGHTPGNSNKWKHLQENKKGRNRRTHEFERAPRSV
In the case of B3, the expression of hormones result is listed as “not affecting” and the “mRNA expression of NKX6.1” value is recorded as “enhanced”.

B4: Epigen: protein factor, R & D Systems catalogue number 6629-EP-025 (protein, UniProt Q6UW88 23-154, looked up)
Epigen: AAVTVTPPITAQQGNWTVNKTEADNIEGPIALKFSHLCLEDHNSYCINGACAFHHELEKAICRCFTGYTGERCEHLTLTSYAVDSYEKYIAIGIGVGLLLSGFLVIFYCYIRKRCLKLKSPYNVCSGERRPL
Consider B4, for which the expression of hormones entry was “not affecting” and the “mRNA expression of NKX6.1” value is on record as “enhanced”.
